Results from US20210292396A1.
Where a chain is given by its changes, count along the chain named.

Assays:
Assay in all cases: cell-based or functional assay
[1] = molecular target: HIV Env of isolate 3326.v4.c3 (HIV)
[2] = molecular target: HIV Env of isolate 3016.v5.c45 (HIV)
Env of SIVmac251.30.SG3 = molecular target: Env of SIVmac251.30.SG3
[3] = molecular target: Env of HIV isolate CNE40 (clade BC) (HIV)
[4] = molecular target: Env of HIV isolate C4118.09 (clade AE) (HIV)
[5] = molecular target: HIV Env of isolate UG024.2 (HIV)
[6] = molecular target: Env of HIV isolate CNE55 (clade AE) (HIV)
[7] = molecular target: HIV Env of isolate 6405.v4.c34 (HIV)
[8] = molecular target: Env of HIV isolate ZM55.28a (clade C) (HIV)
[9] = molecular target: HIV Env of isolate CNE40 (HIV)
[10] = molecular target: Env of HIV isolate 00836-2.5 (clade C) (HIV)
[11] = molecular target: Env of HIV isolate CNE5 (clade AE) (HIV)
[12] = molecular target: Env of HIV isolate 0077.v1.c16 (clade C) (HIV)
[13] = molecular target: Env of HIV isolate 89.6.DG (clade B) (HIV)
[14] = molecular target: Env of HIV isolate ZM53.12 (clade C) (HIV)
[15] = molecular target: Env of HIV isolate CNE8 (clade AE) (HIV)
[16] = molecular target: Env of HIV isolate 3326.v4.c3 (clade CD) (HIV)
[17] = molecular target: Env of HIV isolate REJO.67 (clade B) (HIV)
[18] = molecular target: Env of HIV isolate 242-14 (clade AG) (HIV)
[19] = molecular target: Env of HIV isolate A07412M1.vrc12 (clade D) (HIV)
[20] = molecular target: HIV Env of isolate X1632.S2.B10 (HIV)
[21] = molecular target: HIV Env of isolate 426c (HIV)
[22] = molecular target: HIV Env of isolate 231965.c01 (HIV)
[23] = molecular target: Env of HIV isolate 6471.v1.c16 (clade C) (HIV)
[24] = molecular target: HIV Env of isolate UG021.16 (HIV)
[25] = molecular target: HIV Env of isolate X1254.c3 (HIV)
[26] = molecular target: Env of HIV isolate 398-F1.F6.20 (clade A) (HIV)
[27] = molecular target: Env of HIV isolate R2184.c4 (clade AE) (HIV)
[28] = molecular target: Env of HIV isolate WITO.33 (clade B) (HIV)
[29] = molecular target: Env of HIV isolate ADA.DG (clade B) (HIV)
[30] = molecular target: HIV Env of isolate CAP244.D3 (HIV)
[31] = molecular target: Env of HIV isolate CNE20 (clade BC) (HIV)
[32] = molecular target: HIV Env of isolate 6471.v1.c16 (HIV)
[33] = molecular target: Env of HIV isolate 6838.v1.c35 (clade C) (HIV)
[34] = molecular target: Env of HIV isolate CNE4 (clade B) (HIV)
[35] = molecular target: HIV Env of isolate 001428-2.42 (HIV)
[36] = molecular target: HIV Env of isolate X2131.C1.B5 (HIV)
[37] = molecular target: Env of HIV isolate CNE15 (clade BC) (HIV)
[38] = molecular target: HIV Env of isolate 96ZM651.02 (HIV)
[39] = molecular target: HIV Env of isolate DU422.01 (HIV)
[40] = molecular target: Env of HIV isolate CAAN.A2 (clade B) (HIV)
[41] = molecular target: Env of HIV isolate 6535.3 (clade B) (HIV)
[42] = molecular target: Env of HIV isolate 26191-2.48 (clade C) (HIV)
[43] = molecular target: Env of HIV isolate KNH1209.18 (clade A) (HIV)
[44] = molecular target: Env of HIV isolate CNE53 (clade C in Table 7) (HIV)
[45] = molecular target: Env of HIV isolate ZM233.6 (clade C) (HIV)
[46] = molecular target: Env of HIV isolate P0402.c2.11 (clade G) (HIV)
[47] = molecular target: HIV Env of isolate CH181.12 (HIV)
[48] = molecular target: HIV Env of isolate CAP210.E8 (HIV)
[49] = molecular target: Env of HIV isolate JRFL.JB (clade B) (HIV)

B1: ePGT121.18 (ePGT121.18.H1 VH and ePGT121.17.L1 VL) (antibody, V domains shown)
VH: QMQLQESGPGLVKPGETLSLTCSVSGASISSSYWSWLRETPGKGLEWIGYTHHSGDTNYAPSLKSRVHLGLHPSKNQVSLSLTSVTAADTAVYYCARTLHGRRIYGVVAFNEYYTYFYWPTWGKGTQVTVSS
VL: SDISVAPGETVRITCGGESIGSRAVQWYQHRPGQAPRLIIYNNQDRPPGIPERFSGSPDIDFGTTATLTISNVEAGDEATYYCHIWDSRRPTNWELGPGTTLTVL
- IC80, pseudovirus neutralization (M1) [1]: 2.15 µg/mL
- IC80, pseudovirus neutralization (M2) [1]: 6.86 µg/mL
- IC80, pseudovirus neutralization (M1) [2]: > 50 µg/mL
- IC80, pseudovirus neutralization (M2) [2]: > 50 µg/mL
- IC80, pseudovirus neutralization (M1) (Env of SIVmac251.30.SG3): > 50 µg/mL
- IC80, pseudovirus neutralization (M2) (Env of SIVmac251.30.SG3): > 50 µg/mL
- IC50, pseudovirus neutralization [3]: 0.015 µg/mL
- IC50, pseudovirus neutralization [4]: > 50 µg/mL
- IC80, pseudovirus neutralization (M1) [5]: > 50 µg/mL
- IC80, pseudovirus neutralization (M2) [5]: > 50 µg/mL
- IC50, pseudovirus neutralization [6]: > 50 µg/mL
- IC80, pseudovirus neutralization (M1) [7]: 4 ng/mL
- IC80, pseudovirus neutralization (M2) [7]: 5 ng/mL
- IC50, pseudovirus neutralization [8]: 5 ng/mL
- IC80, pseudovirus neutralization (M1) [9]: 0.047 µg/mL
- IC80, pseudovirus neutralization (M2) [9]: 0.047 µg/mL
- IC50, pseudovirus neutralization [10]: 14.4 µg/mL
- IC50, pseudovirus neutralization [11]: 7.18 µg/mL
- IC50, pseudovirus neutralization [12]: > 50 µg/mL
- IC50, pseudovirus neutralization [13]: 1 ng/mL
- IC50, pseudovirus neutralization [14]: 3 ng/mL
- IC50, pseudovirus neutralization [15]: > 50 µg/mL
- IC50, pseudovirus neutralization [16]: 0.306 µg/mL
- IC50, pseudovirus neutralization [17]: 0.731 µg/mL
- IC50, pseudovirus neutralization [18]: 17.3 µg/mL
- IC50, pseudovirus neutralization [19]: 3 ng/mL
- IC80, pseudovirus neutralization (M1) [20]: > 50 µg/mL
- IC80, pseudovirus neutralization (M2) [20]: > 50 µg/mL
- IC80, pseudovirus neutralization (M1) [21]: 0.302 µg/mL
- IC80, pseudovirus neutralization (M2) [21]: 0.337 µg/mL
- IC80, pseudovirus neutralization (M1) [22]: > 50 µg/mL
- IC80, pseudovirus neutralization (M2) [22]: > 50 µg/mL
- IC50, pseudovirus neutralization [23]: 0.378 µg/mL
- IC80, pseudovirus neutralization (M1) [24]: 0.02 µg/mL
- IC80, pseudovirus neutralization (M2) [24]: 0.019 µg/mL
- IC80, pseudovirus neutralization (M1) [25]: 5 ng/mL
- IC80, pseudovirus neutralization (M2) [25]: 6 ng/mL
- IC50, pseudovirus neutralization [26]: 3 ng/mL
- IC50, pseudovirus neutralization [27]: > 50 µg/mL
- IC50, pseudovirus neutralization [28]: 4 ng/mL
- IC50, pseudovirus neutralization [29]: 2 ng/mL
- IC80, pseudovirus neutralization (M1) [30]: > 50 µg/mL
- IC80, pseudovirus neutralization (M2) [30]: > 50 µg/mL
- IC50, pseudovirus neutralization [31]: 1 ng/mL
- IC80, pseudovirus neutralization (M1) [32]: 2.94 µg/mL
- IC80, pseudovirus neutralization (M2) [32]: 2.62 µg/mL
- IC50, pseudovirus neutralization [33]: 0.386 µg/mL
- IC50, pseudovirus neutralization [34]: 2 ng/mL
- IC80, pseudovirus neutralization (M1) [35]: 3 ng/mL
- IC80, pseudovirus neutralization (M2) [35]: 4 ng/mL
- IC80, pseudovirus neutralization (M1) [36]: 2 ng/mL
- IC80, pseudovirus neutralization (M2) [36]: 3 ng/mL
- IC50, pseudovirus neutralization [37]: 5.69 µg/mL
- IC80, pseudovirus neutralization (M1) [38]: 2 ng/mL
- IC80, pseudovirus neutralization (M2) [38]: 3 ng/mL
- IC80, pseudovirus neutralization (M1) [39]: 0.013 µg/mL
- IC80, pseudovirus neutralization (M2) [39]: 0.013 µg/mL
- IC50, pseudovirus neutralization [40]: 2 ng/mL
- IC50, pseudovirus neutralization [41]: 1 ng/mL
- IC50, pseudovirus neutralization [42]: 3 ng/mL
- IC50, pseudovirus neutralization [43]: 1 ng/mL
- IC50, pseudovirus neutralization [44]: 3 ng/mL
- IC50, pseudovirus neutralization [45]: 0.006 µg/mL
- IC50, pseudovirus neutralization [46]: 2 ng/mL
- IC80, pseudovirus neutralization (M1) [47]: 3 ng/mL
- IC80, pseudovirus neutralization (M2) [47]: 4 ng/mL
- IC80, pseudovirus neutralization (M1) [48]: 0.078 µg/mL
- IC80, pseudovirus neutralization (M2) [48]: 0.106 µg/mL
- IC50, pseudovirus neutralization [49]: 6 ng/mL

B2: ePGT121.18.17 (ePGT121.18.H17 VH and ePGT121.17.L1 VL) (antibody, V domains shown)
VH: B1 VH with H68T, L69I, H72D
VL: B1 VL
- IC80, pseudovirus neutralization [1]: 32 µg/mL
- IC80, pseudovirus neutralization [2]: > 50 µg/mL
- IC80, pseudovirus neutralization (Env of SIVmac251.30.SG3): > 50 µg/mL
- IC50, pseudovirus neutralization [3]: 0.036 µg/mL
- IC50, pseudovirus neutralization [4]: > 50 µg/mL
- IC80, pseudovirus neutralization [5]: > 50 µg/mL
- IC50, pseudovirus neutralization [6]: > 50 µg/mL
- IC80, pseudovirus neutralization [7]: 0.012 µg/mL
- IC50, pseudovirus neutralization [8]: 12 ng/mL
- IC80, pseudovirus neutralization [9]: 0.13 µg/mL
- IC50, pseudovirus neutralization [10]: 48.9 µg/mL
- IC50, pseudovirus neutralization [11]: 47 µg/mL
- IC50, pseudovirus neutralization [12]: > 50 µg/mL
- IC50, pseudovirus neutralization [13]: 4 ng/mL
- IC50, pseudovirus neutralization [14]: 15 ng/mL
- IC50, pseudovirus neutralization [15]: > 50 µg/mL
- IC50, pseudovirus neutralization [16]: 0.633 µg/mL
- IC50, pseudovirus neutralization [17]: 1.43 µg/mL
- IC50, pseudovirus neutralization [18]: > 50 µg/mL
- IC50, pseudovirus neutralization [19]: 4 ng/mL
- IC80, pseudovirus neutralization [20]: > 50 µg/mL
- IC80, pseudovirus neutralization [21]: 1 µg/mL
- IC80, pseudovirus neutralization [22]: > 50 µg/mL
- IC50, pseudovirus neutralization [23]: 1.09 µg/mL
- IC80, pseudovirus neutralization [24]: 0.078 µg/mL
- IC80, pseudovirus neutralization [25]: 0.015 µg/mL
- IC50, pseudovirus neutralization [26]: 5 ng/mL
- IC50, pseudovirus neutralization [27]: > 50 µg/mL
- IC50, pseudovirus neutralization [28]: 15 ng/mL
- IC50, pseudovirus neutralization [29]: 5 ng/mL
- IC80, pseudovirus neutralization [30]: > 50 µg/mL
- IC50, pseudovirus neutralization [31]: 2 ng/mL
- IC80, pseudovirus neutralization [32]: 10 µg/mL
- IC50, pseudovirus neutralization [33]: 0.576 µg/mL
- IC50, pseudovirus neutralization [34]: 8 ng/mL
- IC80, pseudovirus neutralization [35]: 8 ng/mL
- IC80, pseudovirus neutralization [36]: 7 ng/mL
- IC50, pseudovirus neutralization [37]: 14 µg/mL
- IC80, pseudovirus neutralization [38]: 6 ng/mL
- IC80, pseudovirus neutralization [39]: 0.036 µg/mL
- IC50, pseudovirus neutralization [40]: 4 ng/mL
- IC50, pseudovirus neutralization [41]: 2 ng/mL
- IC50, pseudovirus neutralization [42]: 11 ng/mL
- IC50, pseudovirus neutralization [43]: 3 ng/mL
- IC50, pseudovirus neutralization [44]: 6 ng/mL
- IC50, pseudovirus neutralization [45]: 0.017 µg/mL
- IC50, pseudovirus neutralization [46]: 4 ng/mL
- IC80, pseudovirus neutralization [47]: 0.011 µg/mL
- IC80, pseudovirus neutralization [48]: 0.645 µg/mL
- IC50, pseudovirus neutralization [49]: 11 ng/mL

B3: ePGT121.15.H2.L1 (antibody, V domains shown)
VH: B1 VH with Y113W, Y114F, P120E, T121V
VL: B1 VL with T14S, P32A, R37K, S71T, E95V, L96F, P98G
- neutralization (Table 6 value) [22]: 0.285
